The values that follow come from patent US20050201975A1 (published 2005).

One assay deals with T1, GAL4AD protein (UniProt P04386 768-881).
T1 construct: domain: GAL4AD
T1 sequence (looked up): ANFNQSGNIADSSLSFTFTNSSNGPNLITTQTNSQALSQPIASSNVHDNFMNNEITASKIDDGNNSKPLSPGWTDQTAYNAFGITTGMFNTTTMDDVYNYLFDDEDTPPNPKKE
Nature of the assay: yeast two-hybrid bait specificity check in AH109pLOR67.

A further assay addresses T2, GAL4BD alone (UniProt P04386 1-147).
T2 construct: domain: GAL4BD; Three empty GAL4BD expression constructs were used as controls; also called pBD-GAL4cam; pBRIDGE
Nature of the assay: yeast two-hybrid (HIS3, ADE2, LacZ reporters) in AH109. The text has this:
AH109pLOR67 and AH109 transformed with GAL4BD expression constructs pBD-GAL4cam (Stratagene), pBRIDGE (Clontech) and pLOR32 were used to assess whether the GAL4AD fusion proteins encoded by plasmids 8-2 and 8-7 interacted in a repeatable and specific manner with the Notch1(₁₇₆₂₋₁₈₂₉) domain of the GAL4BDN1(₁₇₆₂₋₁₈₂₉) fusion protein.
These yeast stains along with AH109pLOR67 were then transformed with either 8-2 (CBF 1 fragment) or 8-7 and plated on —WL, —WLH, —WLHA, —WLHAXαGAL plates. An alternative to XaGAL was also employed to assess LacZ expression. Yeast colonies grown on —WLHA plates, were transferred to filter paper by placing the appropriately sized piece of 3 mm Whatman paper over the screen plate and pressing down firmly over the whole surface of the plate. The orientation of the paper was then marked and the paper lifted with a jerking action, lifting the colonies from the agar. The yeast colonies were permeabilised by placing the filter papers in liquid nitrogen, and then allowing them to thaw. This cycle was repeated three times in total. 1.8 ml Z buffer containing X-gal was added to each filter paper, the papers were then monitored for the next 6 hours for the production of blue colour.

B1: GAL4BD-N1 fragment (1762-1829) fusion protein (other)
chain: MKLLSSIEQACDICRLKKLKCSKEKPKCAKCLKNNWECRYSPKTKRSPLTRAHLTEVESRLERLEQLFLLIFPREDLDMILKMDSLQDIKALLTGLFVQDNVNKDAVTDRLASVETDMPLTLRQHRISATSSSEESSNKGQRQLTVSPEFRRQHGQLWFPEGFKVSEASKKKRREPLGEDSVGLKPLKNASDGALMDDNQNEWGDEDLETKKFRFEDPSTCSQANSGRISYDL
notes: Expressed in yeast strain AH109 from pLOR67 (yeast two-hybrid bait); Notch1 numbering per AAG33848; also called bait protein
As for B1, the binding result in the assay with GAL4AD protein is “no binding”.

B2: GAL4AD fusion protein encoded by plasmid 8-7 (splice variant of the human homologue of mouse C2PA) (other, not shown: small tags and cut ends)
chain: GRATQGAHARLTGPVRAPAAGGELGFHGAAAEAGPAAMNRFNGLCKVCSERRYRQITIPRGKDGFGFTICCDSPVRVQAVDSGGPAERAGLQQLDTVLQLNERPVEHWKCVELAHEIRSCPSEIILLVWRMVPQVKPGPDGGVLRRASCKSTHDLQSPPNKREKNCTHGVQARPEQRHSCHLVCDSSDGLLLGGWERYTEVAKRGGQHTLPALSRATAPTDPNYIILAPLNPGSQLLRPVYQEDTIPEESGSPSKGKSYTGLGKKSRLMKTVQTMKGHGNYQNCPVVRPHATHSSYGTYVTLAPKVLVFPVFVQPLDLCNPARTLLLSEELLLYEGRNKAAEVTLFAYSDLLLFTKEDEPGRCDVLRNPLYLQSVKLQEGSSEDLKFCVLYLAEKAECLFTLEAHSQEQKKRVCWCLSENIAKQQQLAASPPDSKKLHPFGSLQQEMGPVNSTNATQDRSFTSPGQTLIG
notes: Prey from a human spleen cDNA library (Clontech); also called colony 8-7
Consider B2, for which, in the assay with GAL4BD alone, the binding result is listed as “no binding”.
